Reference: publication PMC4678855 (Nucleic Acids Research, 2015)

Assays:
[1] = molecular target: B. subtilis β-clamp, cysteine-modified variant (residues 1–380 including the added Ser379–Cys380 dipeptide) (B. subtilis) (UniProt P05649); assay: SAXS
SAXS = molecular target: the molecule itself; assay: SAXS

stoichiometry N [1]: 1
B1: B. subtilis MutL C-terminal domain, inactive cysteine-modified variant (residues 433–627; E485C, C531S, C573S, C604S) (domain or fragment, UniProt P49850 433-627, looked up)
chain: SDRVPIMYPIGQMHGTYILAQNENGLYIIDQHAAQERIKYEYFREKVGEVEPCVQEMIVPLTFHYSTNEALIIEQHKQELESVGVFLESFGSNSYIVRSHPAWFPKGEEAELIEEIIQQVLDSKNIDIKKLREEAAIMMSSKGSIKANRHLRNDEIKALLDDLRSTSDPFTSPHGRPIIIHHSTYEMEKMFKRVM
stoichiometry N (SAXS): 2
